Biological target: T1, His-tagged Stx6 (aa 1–234) (human, UniProt O43752 1-234)
T1 sequence: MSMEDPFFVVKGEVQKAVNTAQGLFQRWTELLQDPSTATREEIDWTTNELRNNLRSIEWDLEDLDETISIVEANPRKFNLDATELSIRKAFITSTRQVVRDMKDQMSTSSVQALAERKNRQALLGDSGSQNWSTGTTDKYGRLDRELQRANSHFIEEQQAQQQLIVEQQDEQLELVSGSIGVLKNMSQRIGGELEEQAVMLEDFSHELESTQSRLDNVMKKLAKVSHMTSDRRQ
Assay: pull-down

B1: GST-Cog6 (aa 1–200), bacterial (domain or fragment)
chain: MAEGSGEVVAVSATGAANGLNNGAGGTSATTCNPLSRKLHKILETRLDNDKEMLEALKALSTFFVENSLRTRRNLRGDIERKSLAINEEFVSIFKEVKEELESISEDVQAMSNCCQDMTSRLQAAKEQTQDLIVKTTKLQSESQKLEIRAQVADAFLSKFQLTSDEMSLLRGTREGPITEDFFKALGRVKQIHNDVKVLL
binding result: binds

From article PMC3153647 (The Journal of Cell Biology, 2011)
